Reference: patent US20210000940A1
Where two headings read alike, the source gives them in different places.

Key:
[1] = target: Andes virus glycoprotein Gc, wild type (Andes orthohantavirus CHI-7913) (UniProt Q9E006)
[2] = target: Andes virus glycoprotein Gc, wild type (Andes orthohantavirus CHI-7913) (UniProt Q9E006); remark: listed apart in the source

Substance: Andes virus glycoprotein Gn, wild type (from UniProt Q9E006 19-651)
- melting temperature (Tm) of temperature-induced Gn/Gc dissociation [1]: 37.7 °C
- melting temperature (Tm) of temperature-induced Gn/Gc dissociation [2]: 36.3 °C
